Experimental findings from the supplement of paper PMC5998384 are described below.

Data set [1] deals with HeLa Kyoto. Put plainly: solubility in G1/S (NP-40 vs SDS abundance) (log2 ratio); higher = more soluble. Conditions: cell cycle stage: G1/S.
Data set [2] deals with HeLa Kyoto. Nature of the data set: melting temperature (median over replicates), in situ; higher = more thermally stable.
The subject of data set [3] is HeLa Kyoto. Nature of the data set: solubility change mitosis vs G1/S (difference of NP-40 vs SDS log2 ratios) (log2 ratio difference); higher = more soluble in mitosis.
Data set [4] relates to HeLa Kyoto. Nature of the data set: thermal stability score vs G1/S (z-score of summed log2 fold changes over temperatures); higher = more thermally stable than in G1/S.
Where [5] appears, read: cell cycle stage: early G1 (4.5 h after nocodazole release).
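For melting temperature (median over replicates), in situ in this document: HeLa Kyoto cells synchronized by double thymidine or nocodazole block, proteins quantified by TMT10plex mass spectrometry, three independent biological replicates.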
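For solubility change mitosis vs G1/S (difference of NP-40 vs SDS log2 ratios) in this document: synchronized HeLa Kyoto cells (double thymidine block for G1/S, nocodazole release for mitosis), protein amounts in NP-40 versus SDS lysates quantified by mass spectrometry, three biological replicates.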
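For solubility in G1/S (NP-40 vs SDS abundance) in this document: HeLa Kyoto cells arrested at G1/S by double thymidine block, proteins quantified by TMT10plex mass spectrometry in mild NP-40 versus SDS extracts, three biological replicates.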
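For thermal stability score vs G1/S (z-score of summed log2 fold changes over temperatures) in this document: synchronized HeLa Kyoto cells, proteins quantified by TMT10plex mass spectrometry, three biological replicates, mitosis taken 0.5 h after nocodazole release, G1/S directly after double thymidine block.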

Turning to “MKLLTHNLLSSHVRGVGSRGFPLRLQATEVRICPVEFNPNFVARMIPKVEWSAFLEAADNLRLIQVPKGPVEGYEENEEFLRTMHHLLLEVEVIEGTLQCPESGRMFPISRGIPNMLLSEEETES [TRMT112]”, the “solubility in G1/S (log2)” value in data set [1] is 0.323. In addition, the melting temperature in data set [2] (cell cycle stage: G1/S) was 51.5 °C; in data set [2] (cell cycle stage: mitosis), 51.4 °C. Moreover, in data set [3], the “solubility change mitosis (log2)” value came out at 0.201. In addition, the results for the thermal stability score in data set [4] (setting [5]) and in data set [4] (cell cycle stage: mitosis) were -4.68 and -1.02, respectively.
“MYHNSSQKRHWTFSSEEQLARLRADANRKFRCKAVANGKVLPNDPVFLEPHEEMTLCKYYEKRLLEFCSVFKPAMPRSVVGTACMYFKRFYLNNSVMEYHPRIIMLTCAFLACKVDEFNVSSPQFVGNLRESPLGQEKALEQILEYELLLIQQLNFHLIVHNPYRPFEGFLIDLKTRYPILENPEILRKTADDFLNRIALTDAYLLYTPSQIALTAILSSASRAGITMESYLSESLMLKENRTCLSQLLDIMKSMRNLVKKYEPPRSEEVAVLKQKLERCHSAELALNVITKKRKGYEDDDYVSKKSKHEEEEWTDDDLVESL [CCNH]”: the “solubility in G1/S (log2)” value in data set [1] amounted to 0.259. Further, the melting temperature amounted to 51.1 °C in data set [2] (cell cycle stage: G1/S) and 52.2 °C in data set [2] (cell cycle stage: mitosis). Further, the “solubility change mitosis (log2)” value in data set [3] was -0.195. Besides, the thermal stability score in data set [4] (setting [5]) amounted to 0.868; in data set [4] (cell cycle stage: mitosis) it was 1.73.
On to “MNKLRQSFRRKKDVYVPEASRPHQWQTDEEGVRTGKCSFPVKYLGHVEVDESRGMHICEDAVKRLKAERKFFKGFFGKTGKKAVKAVLWVSADGLRVVDEKTKDLIVDQTIEKVSFCAPDRNFDRAFSYICRDGTTRRWICHCFMAVKDTGERLSHAVGCAFAACLERKQKREKECGVTATFDASRTTFTREGSFRVTTATEQAEREEIMKQMQDAKKAETDKIVVGSSVAPGNTAPSPSSPTSPTSDATTSLEMNNPHAIPRRHAPIEQLARQGSFRGFPALSQKMSPFKRQLSLRINELPSTMQRKTDFPIKNAVPEVEGEAESISSLCSQITNAFSTPEDPFSSAPMTKPVTVVAPQSPTFQANGTDSAFHVLAKPAHTALAPVAMPVRETNPWAHAPDAANKEIAATCSGTEWGQSSGAASPGLFQAGHRRTPSEADRWLEEVSKSVRAQQPQASAAPLQPVLQPPPPTAISQPASPFQGNAFLTSQPVPVGVVPALQPAFVPAQSYPVANGMPYPAPNVPVVGITPSQMVANVFGTAGHPQAAHPHQSPSLVRQQTFPHYEASSATTSPFFKPPAQHLNGSAAFNGVDDGRLASADRHTEVPTGTCPVDPFEAQWAALENKSKQRTNPSPTNPFSSDLQKTFEIEL [NUMB]”, for which the “solubility in G1/S (log2)” value in data set [1] was -0.0586. Also, the melting temperature in data set [2] (cell cycle stage: G1/S) was determined as 51.9 °C; in data set [2] (cell cycle stage: mitosis), 51.4 °C. For the same substance, the “solubility change mitosis (log2)” value in data set [3] is -0.132. The thermal stability score in data set [4] (setting [5]) came out at 0.0697; in data set [4] (cell cycle stage: mitosis), 0.793.
Regarding “METPAAAAPAGSLFPSFLLLACGTLVAALLGAAHRLGLFYQLLHKVDKASVRHGGENVAAVLRAHGVRFIFTLVGGHISPLLVACEKLGIRVVDTRHEVTAVFAADAMARLSGTVGVAAVTAGPGLTNTVTAVKNAQMAQSPILLLGGAASTLLQNRGALQAVDQLSLFRPLCKFCVSVRRVRDIVPTLRAAMAAAQSGTPGPVFVELPVDVLYPYFMVQKEMVPAKPPKGLVGRVVSWYLENYLANLFAGAWEPQPEGPLPLDIPQASPQQVQRCVEILSRAKRPLMVLGSQALLTPTSADKLRAAVETLGVPCFLGGMARGLLGRNHPLHIRENRSAALKKADVIVLAGTVCDFRLSYGRVLSHSSKIIIVNRNREEMLLNSDIFWKPQEAVQGDVGSFVLKLVEGLQGQTWAPDWVEELREADRQKEQTFREKAAMPVAQHLNPVQVLQLVEETLPDNSILVVDGGDFVGTAAHLVQPRGPLRWLDPGAFGTLGVGAGFALGAKLCRPDAEVWCLFGDGAFGYSLIEFDTFVRHKIPVMALVGNDAGWTQISREQVPSLGSNVACGLAYTDYHKAAMGLGARGLLLSRENEDQVVKVLHDAQQQCRDGHPVVVNILIGRTDFRDGSIAV [ILVBL]”, the “solubility in G1/S (log2)” value in data set [1] was -0.101. The melting temperature in data set [2] (cell cycle stage: G1/S) was 53.2 °C; in data set [2] (cell cycle stage: mitosis) it was 53.7 °C. The “solubility change mitosis (log2)” value in data set [3] is -0.172. Further, the thermal stability score in data set [4] (setting [5]) was 0.852; in data set [4] (cell cycle stage: mitosis), -0.0354.
“MTMDKSELVQKAKLAEQAERYDDMAAAMKAVTEQGHELSNEERNLLSVAYKNVVGARRSSWRVISSIEQKTERNEKKQQMGKEYREKIEAELQDICNDVLELLDKYLIPNATQPESKVFYLKMKGDYFRYLSEVASGDNKQTTVSNSQQAYQEAFEISKKEMQPTHPIRLGLALNFSVFYYEILNSPEKACSLAKTAFDEAIAELDTLNEESYKDSTLIMQLLRDNLTLWTSENQGDEGDAGEGEN [YWHAB]”: the “solubility in G1/S (log2)” value in data set [1] stood at 0.324. The melting temperature in data set [2] (cell cycle stage: G1/S) was 52.6 °C; in data set [2] (cell cycle stage: mitosis) it was 52.8 °C. In data set [3], the “solubility change mitosis (log2)” value was determined as 0.402. For the same substance, the thermal stability score in data set [4] (setting [5]) was -1.46; in data set [4] (cell cycle stage: mitosis) it was -2.76.
On to KNTC1, for which the “solubility in G1/S (log2)” value in data set [1] was -0.33. Also, the results for the melting temperature in data set [2] (cell cycle stage: G1/S) and in data set [2] (cell cycle stage: mitosis) were 49.6 °C and 49.4 °C, respectively. The “solubility change mitosis (log2)” value in data set [3] is -0.188. For the same substance, the results for the thermal stability score in data set [4] (setting [5]) and in data set [4] (cell cycle stage: mitosis) were -0.336 and 0.546, respectively.
As for “MALFAVFQTTFFLTLLSLRTYQSEVLAERLPLTPVSLKVSTNSTRQSLHLQWTVHNLPYHQELKMVFQIQISRIETSNVIWVGNYSTTVKWNQVLHWSWESELPLECATHFVRIKSLVDDAKFPEPNFWSNWSSWEEVSVQDSTGQDILFVFPKDKLVEEGTNVTICYVSRNIQNNVSCYLEGKQIHGEQLDPHVTAFNLNSVPFIRNKGTNIYCEASQGNVSEGMKGIVLFVSKVLEEPKDFSCETEDFKTLHCTWDPGTDTALGWSKQPSQSYTLFESFSGEKKLCTHKNWCNWQITQDSQETYNFTLIAENYLRKRSVNILFNLTHRVYLMNPFSVNFENVNATNAIMTWKVHSIRNNFTYLCQIELHGEGKMMQYNVSIKVNGEYFLSELEPATEYMARVRCADASHFWKWSEWSGQNFTTLEAAPSEAPDVWRIVSLEPGNHTVTLFWKPLSKLHANGKILFYNVVVENLDKPSSSELHSIPAPANSTKLILDRCSYQICVIANNSVGASPASVIVISADPENKEVEEERIAGTEGGFSLSWKPQPGDVIGYVVDWCDHTQDVLGDFQWKNVGPNTTSTVISTDAFRPGVRYDFRIYGLSTKRIACLLEKKTGYSQELAPSDNPHVLVDTLTSHSFTLSWKDYSTESQPGFIQGYHVYLKSKARQCHPRFEKAVLSDGSECCKYKIDNPEEKALIVDNLKPESFYEFFITPFTSAGEGPSATFTKVTTPDEHSSMLIHILLPMVFCVLLIMVMCYLKSQWIKETCYPDIPDPYKSSILSLIKFKENPHLIIMNVSDCIPDAIEVVSKPEGTKIQFLGTRKSLTETELTKPNYLYLLPTEKNHSGPGPCICFENLTYNQAASDSGSCGHVPVSPKAPSMLGLMTSPENVLKALEKNYMNSLGEIPAGETSLNYVSQLASPMFGDKDSLPTNPVEAPHCSEYKMQMAVSLRLALPPPTENSSLSSITLLDPGEHYC [OSMR]”, the “solubility in G1/S (log2)” value in data set [1] was -0.0468. Also, the results for the melting temperature in data set [2] (cell cycle stage: G1/S) and in data set [2] (cell cycle stage: mitosis) were 50.9 °C and 51.1 °C, respectively. Moreover, the “solubility change mitosis (log2)” value in data set [3] is -0.0968. Further, the thermal stability score in data set [4] (setting [5]) is 0.598; in data set [4] (cell cycle stage: mitosis) it was -0.083.
